The target in test [1] is Crotalus durissus terrificus (C.d.t.) venom. Put plainly: ELISA on C.d.t. venom; dilution 1:62,500. On the technique in general: In an ELISA, binding on a coated surface is turned into a signal by an enzyme label.
Test [2] has the same target. Put plainly: ELISA on C.d.t. venom; dilution 1:312,500.

In the case of preimmune IgY (antibody), the ELISA absorbance stood at 0.001 absorbance in test [1] and 0.01 absorbance in test [2].

The values are drawn from US20040142455A1.
